# According to patent US20090180952A1:
# Experiments:
# [1] = biological target: recombinant soluble urokinase plasminogen activator receptor (suPAR, aa 1-279) (UniProt Q03405); assay: direct binding assay (format and antigen form not stated)
# [2] = biological target: uPAR on the surface of HeLa cells, Q03405; assay: 125I-ATN-658 saturation binding to HeLa cells
# uPAR on the surface of HeLa cells, Q03405, sequence (Q03405 23-305 limits assumed): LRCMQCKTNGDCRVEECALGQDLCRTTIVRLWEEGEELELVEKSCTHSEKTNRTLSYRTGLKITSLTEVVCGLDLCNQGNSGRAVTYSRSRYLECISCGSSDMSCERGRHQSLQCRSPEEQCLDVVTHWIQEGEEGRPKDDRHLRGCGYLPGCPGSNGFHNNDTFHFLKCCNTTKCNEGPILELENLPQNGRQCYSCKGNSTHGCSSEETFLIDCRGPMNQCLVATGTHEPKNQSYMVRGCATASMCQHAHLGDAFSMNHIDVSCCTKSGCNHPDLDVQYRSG
Kd [1] [nM],Kd [2] [nM],Binder
2,–,"mAb ATN-615 (antibody, IgG1, V domains shown) VH: VKLQQSGPEVVKPGASVKISCKASGYSFTNFYIHWVKQRPGQGLEWIGWIFHGSDNTEYNEKFKDKATLTADTSSSTAYMQLSSLTSEDSAVYFCARWGPHWYFDVWGQGTTVTVSS VL: DIVLTQSPDITAASLGQKVTITCSASSSVSYMHWYQQKSGTSPKPWIFEISKLASGVPARFSGSGSGTSYSLTISSMEAEDAAIYYCQQWNYPFTFGGGTKLEIKR"
–,1.5,"mAb ATN-658 (antibody, IgG1, V domains shown, modifications not checked) VL: not shown VH: VQLQESGPELVKTGASVKISCKASGYSFTSYYMHWVKQSHGKSLEWIGEINPYNGGASYNQKIKGRATFTVDTSSRTAYMQFNSLTSEDSAVYYCARSIYGHSVLDYWGQGTTVTVS"
